According to publication PMC3188589, “Structural and Biochemical Studies of Human 4-hydroxy-2-oxoglutarate Aldolase: Implications for Hydroxyproline Metabolism in Primary Hyperoxaluria” (PLoS ONE, 2011):
Where “and” joins values, the source holds several entries; their conditions need not be identical. Equal entries are not always repeated.

T1: human HOGA (hHOGA) (Homo sapiens, UniProt Q86XE5)
T1 construct: gene HOGA1; His-tag (WT, Y140F) cleavable by PreScission leaving GPH, 33,097 Da tag-free; S77, N78 and S198 mutants as MBP fusion, MBP cleaved; tetramer
T1 sequence (Q86XE5 26-327): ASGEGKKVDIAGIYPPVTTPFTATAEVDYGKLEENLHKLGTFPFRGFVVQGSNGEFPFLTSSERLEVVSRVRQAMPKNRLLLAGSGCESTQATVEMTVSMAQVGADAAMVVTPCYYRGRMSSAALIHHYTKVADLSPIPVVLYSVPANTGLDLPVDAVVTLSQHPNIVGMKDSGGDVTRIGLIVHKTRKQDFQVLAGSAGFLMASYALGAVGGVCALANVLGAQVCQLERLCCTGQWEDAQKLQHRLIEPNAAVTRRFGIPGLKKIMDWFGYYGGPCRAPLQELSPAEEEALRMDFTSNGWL

T2: bovine HOGA (bHOGA) (Bos taurus, UniProt Q0P5I5)
T2 construct: gene HOGA1; native mature enzyme purified from kidney cortex mitochondria, begins at residue 26, 35,217 Da printed, no tag
T2 sequence (Q0P5I5 26-327): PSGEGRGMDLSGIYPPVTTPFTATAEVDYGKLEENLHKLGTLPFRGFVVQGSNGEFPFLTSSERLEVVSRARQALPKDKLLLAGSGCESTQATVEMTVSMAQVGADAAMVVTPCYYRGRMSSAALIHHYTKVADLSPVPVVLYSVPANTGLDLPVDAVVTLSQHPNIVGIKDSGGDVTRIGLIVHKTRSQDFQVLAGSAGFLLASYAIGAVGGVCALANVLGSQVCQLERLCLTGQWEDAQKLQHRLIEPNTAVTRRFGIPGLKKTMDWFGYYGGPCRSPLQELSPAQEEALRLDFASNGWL

B1: human 4-hydroxy-2-oxoglutarate aldolase (hHOGA), His-tag free (enzyme)
chain: GPHASGEGKKVDIAGIYPPVTTPFTATAEVDYGKLEENLHKLGTFPFRGFVVQGSNGEFPFLTSSERLEVVSRVRQAMPKNRLLLAGSGCESTQATVEMTVSMAQVGADAAMVVTPCYYRGRMSSAALIHHYTKVADLSPIPVVLYSVPANTGLDLPVDAVVTLSQHPNIVGMKDSGGDVTRIGLIVHKTRKQDFQVLAGSAGFLMASYALGAVGGVCALANVLGAQVCQLERLCCTGQWEDAQKLQHRLIEPNAAVTRRFGIPGLKKIMDWFGYYGGPCRAPLQELSPAEEEALRMDFTSNGWL
notes: three additional N-terminal residues left from the PreScission Protease recognition site after removal of the His-tag; the protein starts at residue 26; 302 residues in the mature form; Tetramer (dimer of dimers) in the crystal; dimer-tetramer equilibrium in solution; also called human HOGA; HOGA1; source: E. coli BL21*(DE3), purified (Ni-NTA, Q-Sepharose HP, Superdex 200); His-tag removed with …
B2: human HOGA (hHOGA) (Homo sapiens; Y140F) (protein)
chain: ASGEGKKVDIAGIYPPVTTPFTATAEVDYGKLEENLHKLGTFPFRGFVVQGSNGEFPFLTSSERLEVVSRVRQAMPKNRLLLAGSGCESTQATVEMTVSMAQVGADAAMVVTPCFYRGRMSSAALIHHYTKVADLSPIPVVLYSVPANTGLDLPVDAVVTLSQHPNIVGMKDSGGDVTRIGLIVHKTRKQDFQVLAGSAGFLMASYALGAVGGVCALANVLGAQVCQLERLCCTGQWEDAQKLQHRLIEPNAAVTRRFGIPGLKKIMDWFGYYGGPCRAPLQELSPAEEEALRMDFTSNGWL
notes: His-tag (WT, Y140F) cleavable by PreScission leaving GPH, 33,097 Da tag-free; S77, N78 and S198 mutants as MBP fusion, MBP cleaved; tetramer
B3: human HOGA (hHOGA) (Homo sapiens) (protein)
chain: ASGEGKKVDIAGIYPPVTTPFTATAEVDYGKLEENLHKLGTFPFRGFVVQGSNGEFPFLTSSERLEVVSRVRQAMPKNRLLLAGSGCESTQATVEMTVSMAQVGADAAMVVTPCYYRGRMSSAALIHHYTKVADLSPIPVVLYSVPANTGLDLPVDAVVTLSQHPNIVGMKDSGGDVTRIGLIVHKTRKQDFQVLAGSAGFLMASYALGAVGGVCALANVLGAQVCQLERLCCTGQWEDAQKLQHRLIEPNAAVTRRFGIPGLKKIMDWFGYYGGPCRAPLQELSPAEEEALRMDFTSNGWL
notes: as for B2
B4: human HOGA (hHOGA) (Homo sapiens; S198A) (protein)
chain: ASGEGKKVDIAGIYPPVTTPFTATAEVDYGKLEENLHKLGTFPFRGFVVQGSNGEFPFLTSSERLEVVSRVRQAMPKNRLLLAGSGCESTQATVEMTVSMAQVGADAAMVVTPCYYRGRMSSAALIHHYTKVADLSPIPVVLYSVPANTGLDLPVDAVVTLSQHPNIVGMKDAGGDVTRIGLIVHKTRKQDFQVLAGSAGFLMASYALGAVGGVCALANVLGAQVCQLERLCCTGQWEDAQKLQHRLIEPNAAVTRRFGIPGLKKIMDWFGYYGGPCRAPLQELSPAEEEALRMDFTSNGWL
notes: as for B2

Target: the molecule itself
Assay: crystal structure; apoenzyme (2.5 A) and pyruvate-Schiff base complex (1.97 A), space group P6(4)22, one molecule in the asymmetric unit; the tetramer is generated by crystallographic symmetry
Conditions: not given

Molecule	stoichiometry N
B1	4

target: T1, human HOGA (hHOGA); assay: X-ray crystal structure, […] Å; type: binding; conditions: covalent Schiff base with Lys196; 10 mM sodium pyruvate in crystallization, pH 7.5, 20°C

Molecule	X-ray crystal structure, 1.97 Å
CC(=O)C(=O)O [pyruvate]	clear continuous electron density for the imine Schiff base adduct between the ε-amino group of

target: T2, bovine HOGA (bHOGA); assay: phenylhydrazine assay of glyoxylate formation; type: biochemical; conditions: racemic HOG; native enzyme from kidney mitochondria

Molecule	phenylhydrazine assay of glyoxylate formation
O=C(O)C(=O)CC(O)C(=O)O (racemic) [HOG]	production of glyoxylate from HOG synthesized in-house

Target: the molecule itself
Assay: AUC; sedimentation equilibrium; His-tag free hHOGA at 0.43, 0.82, 1.25 mg/ml and a replicate at 0.45, 0.78, 1.14 mg/ml, two rotor speeds; 20 mM HEPES pH 7.5, 100 mM NaCl; fit to a dimer-tetramer model (HETEROANALYSIS, SEDPHAT); tetramer to dimers
Conditions: not given

Molecule	Kd
B1	~60 µM and 58 to 63 µM

substrate: O=C(O)C(=O)CC(O)C(=O)O; assay: purified protein; type: biochemical, Homo sapiens; conditions: racemic HOG, 100 mM TRIS pH 8.5, 37°C, aldol cleavage

Molecule	Km [µM]	kcat [s⁻¹]	kcat/Km [M⁻¹ s⁻¹]
B2	8 ± 1	5.2 ± 0.1	650000 ± 81000
B3	11 ± 1	6.1 ± 0.1	555000 ± 50000
B4	44 ± 2	2.4 ± 0.1	55000 ± 3000
